Biological target: transmembrane Crumbs2 (CRB2TM) (mouse (endogenous in E15.5 spinal cord sections)) (UniProt Q80YA8)
Chain of UniProt Q80YA8 (Q80YA8 36-1282): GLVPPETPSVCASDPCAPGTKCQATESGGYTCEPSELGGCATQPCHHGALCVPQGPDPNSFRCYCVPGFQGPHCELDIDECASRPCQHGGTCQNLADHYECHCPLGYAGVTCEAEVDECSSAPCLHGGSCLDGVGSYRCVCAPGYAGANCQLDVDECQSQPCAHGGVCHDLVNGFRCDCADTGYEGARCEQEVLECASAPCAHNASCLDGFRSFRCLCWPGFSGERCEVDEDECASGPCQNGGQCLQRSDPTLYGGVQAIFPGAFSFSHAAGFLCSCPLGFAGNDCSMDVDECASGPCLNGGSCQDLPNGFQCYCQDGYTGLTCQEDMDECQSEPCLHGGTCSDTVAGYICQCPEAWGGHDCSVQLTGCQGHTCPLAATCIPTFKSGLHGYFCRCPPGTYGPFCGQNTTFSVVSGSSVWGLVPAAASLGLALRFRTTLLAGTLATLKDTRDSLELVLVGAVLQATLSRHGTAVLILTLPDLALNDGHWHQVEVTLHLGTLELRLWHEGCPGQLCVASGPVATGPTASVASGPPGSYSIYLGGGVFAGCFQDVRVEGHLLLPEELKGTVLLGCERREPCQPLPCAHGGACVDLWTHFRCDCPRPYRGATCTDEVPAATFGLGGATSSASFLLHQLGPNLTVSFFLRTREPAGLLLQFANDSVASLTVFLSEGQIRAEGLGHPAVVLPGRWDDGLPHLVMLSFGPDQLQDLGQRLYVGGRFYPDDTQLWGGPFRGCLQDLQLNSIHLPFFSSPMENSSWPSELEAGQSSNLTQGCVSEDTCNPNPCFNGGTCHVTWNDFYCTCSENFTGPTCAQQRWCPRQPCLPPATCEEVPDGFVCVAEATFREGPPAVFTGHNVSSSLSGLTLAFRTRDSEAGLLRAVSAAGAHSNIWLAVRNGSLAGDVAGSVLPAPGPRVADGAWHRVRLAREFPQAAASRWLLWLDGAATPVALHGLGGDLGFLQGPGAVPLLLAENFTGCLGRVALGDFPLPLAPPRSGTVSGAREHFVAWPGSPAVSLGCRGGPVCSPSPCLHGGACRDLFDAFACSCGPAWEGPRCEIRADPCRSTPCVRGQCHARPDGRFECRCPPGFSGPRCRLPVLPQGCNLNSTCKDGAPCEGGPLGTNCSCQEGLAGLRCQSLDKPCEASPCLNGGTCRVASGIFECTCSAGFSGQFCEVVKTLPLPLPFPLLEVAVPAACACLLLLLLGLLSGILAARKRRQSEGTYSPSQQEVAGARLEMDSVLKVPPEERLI

apically localised ZO-1 in MDCK cells seeded at high density and cultured with high concentrations of CRB2S (77% of cells in control medium): 23%
Substance: secreted Crumbs2 (CRB2S), His-tagged (natural protein)

Source: publication PMC7108746
